Experimental data from publication PMC4951694, “Structural and thermodynamic basis of proline-induced transmembrane complex stabilization” (Scientific Reports, 2016).

Target: T1, integrin β3(G690C/A711P) TM peptide of the disulfide-linked αIIb(A963C)–β3(G690C/A711P) dimer (human, UniProt P05106 711-753, C687S | G690C | A711P, not fully specified; C690 disulfide-linked to C963 of αIIb(A963C); 2H/13C/15N or 2H/15N labelling in some samples)
T1 construct: integrin β3, human, P685-F727; add 26 for P05106; source: E. coli
T1 chain (looked up): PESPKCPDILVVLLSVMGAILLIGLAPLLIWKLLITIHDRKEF
Assay: NMR structure; disulfide-linked dimer, 0.8 mM, in 350 mM DHPC, 105 mM DMPC bicelles (q 0.3), pH 7.4, 40 °C; interhelical NOEs and RDCs
Conditions: both partners purified

B1: integrin αIIb(A963C) TM peptide of the disulfide-linked αIIb(A963C)–β3(G690C/A711P) dimer (peptide)
chain: not shown
modifications: C963 disulfide-linked to C690 of β3(G690C/A711P); 2H/13C/15N, 2H/15N or fractionally deuterated labelling in some samples
notes: integrin αIIb, human, A958-P998; add 31 for P08514; source: E. coli
Question: Does B1 bind?
Answer: Result: binds
